Assay results from US5516678.

System: SspI restriction endonuclease (native) (Sphaerotilus sp. ATCC 13925)
Assay: cleavage_in_vitro
Conditions: Mono S fractions, homogeneous; lambda DNA assay stated in D-7

Substance: phage lambda DNA
- activity: 140000 units/mg
